These results are taken from patent US20030162190.

Data set [1] addresses NF-kB p50 homodimer (UniProt P19838). The data set is described as follows: EMSA. The settings on record: only 'similar data was collected for p50'; method inferred.
Data set [2] concerns the target NF-kB p65 (RelA) homodimer (UniProt Q04206). The data set is described as follows: EMSA. Conditions: 1:1 stoichiometry; method inferred. (In general: Mobility shift assays separate free from complexed probe on a gel.)

NF-kB p65 (RelA) homodimer, sequence (Q04206 whole entry): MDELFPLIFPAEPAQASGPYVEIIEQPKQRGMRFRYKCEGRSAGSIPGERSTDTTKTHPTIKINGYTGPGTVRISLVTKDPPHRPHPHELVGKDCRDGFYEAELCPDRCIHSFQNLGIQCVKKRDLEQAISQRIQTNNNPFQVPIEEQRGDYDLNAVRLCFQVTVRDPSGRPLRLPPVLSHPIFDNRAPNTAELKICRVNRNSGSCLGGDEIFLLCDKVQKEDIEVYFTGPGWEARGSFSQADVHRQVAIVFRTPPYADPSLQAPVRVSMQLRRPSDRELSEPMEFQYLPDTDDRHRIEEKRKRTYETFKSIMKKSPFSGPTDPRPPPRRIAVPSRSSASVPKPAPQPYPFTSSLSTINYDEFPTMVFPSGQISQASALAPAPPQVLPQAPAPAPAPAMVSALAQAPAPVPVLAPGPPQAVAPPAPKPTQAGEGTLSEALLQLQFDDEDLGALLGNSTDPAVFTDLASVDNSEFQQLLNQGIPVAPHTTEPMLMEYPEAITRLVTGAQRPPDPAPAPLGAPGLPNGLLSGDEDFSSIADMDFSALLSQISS
NF-kB p50 homodimer, sequence (P19838 1-433): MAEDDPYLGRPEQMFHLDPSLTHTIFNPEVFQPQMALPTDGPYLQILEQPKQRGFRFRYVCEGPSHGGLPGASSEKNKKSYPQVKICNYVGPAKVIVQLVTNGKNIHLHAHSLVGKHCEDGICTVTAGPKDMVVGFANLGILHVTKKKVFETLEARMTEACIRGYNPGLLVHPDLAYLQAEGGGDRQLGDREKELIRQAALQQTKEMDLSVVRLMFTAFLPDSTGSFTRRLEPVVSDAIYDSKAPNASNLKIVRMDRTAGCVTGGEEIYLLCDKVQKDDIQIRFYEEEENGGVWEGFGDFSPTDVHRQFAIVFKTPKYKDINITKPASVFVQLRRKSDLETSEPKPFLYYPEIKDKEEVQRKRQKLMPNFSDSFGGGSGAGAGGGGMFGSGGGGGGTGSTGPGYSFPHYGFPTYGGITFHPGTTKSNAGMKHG

A word on the Kd: it is a measure of binding affinity in units of concentration. The low end stands for higher affinity, the high end for lower affinity. In the case of IgkB 22-mer promoter site, the dissociation constant Kd in data set [1] and in data set [2] was 4 nM throughout.
